Data as given in patent US20130133089A1 (MEDICAL RESEARCH INFRASTRUCTURE AND HEALTH SERVICES FUND OF …, published 2013).
Where a chain is given by its changes, count along the chain named. Names and notes keep the numbering of the source.

Legend:
[1] = molecular target: T1, Recombinant human leptin binding domain (hLBD) (human, UniProt P48357 428-635, biotinylated with Sulfo-NHS-LC-Biotin in the yeast display assays; not labelled when immobilized in the plate binding assay); assay: competitive plate binding assay: immobilized hLBD, biotinylated mouse leptin as ligand, mutein as competitor
T1 construct: CRH2 sub-domain of the leptin receptor; Prepared in the applicants' laboratory; also called soluble human leptin receptor; CHR2
T1 sequence (looked up): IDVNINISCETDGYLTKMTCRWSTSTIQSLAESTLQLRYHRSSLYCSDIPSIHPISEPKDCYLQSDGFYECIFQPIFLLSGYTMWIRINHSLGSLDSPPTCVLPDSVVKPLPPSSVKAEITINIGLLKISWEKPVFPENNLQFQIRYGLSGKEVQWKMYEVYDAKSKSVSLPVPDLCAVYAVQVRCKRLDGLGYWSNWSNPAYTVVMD
Description: Biotinylated mouse leptin served as the ligand in all competitive experiments and the respective mouse leptin or mouse or human leptin antagonist muteins as competitors. The hLBD was used as the receptor source. Polystyrene 96-well microtiter plates were coated overnight at 4° C. with 100 μl of 40 μM hLBD in PBS pH 7.4. Wells were then washed one time with PBST (PBS containing 0.05 Tween 20) and blocked with PBS containing 3% skim milk for two hours in room temperature. All further incubations were carried out at room temperature. Wells were washed one time with PBST and incubated with different concentrations of un-labeled leptins (50 μl/well) for 30 min and then 50 μl of 62.5 μM of biotinylated mouse leptin were added to each well for another two hours. Then the wells were washed three times with PBST and incubated with 1:30,000 streptavidin-HRP in PBS containing 1 Tween 20 for one hour. Subsequently the wells were washed three times with PBST and the reaction was quantified in 450 nm by microplate reader ELISA Plate Reader ELx808—Bio-Tek Instrument Inc. (Winooski, Vt., USA) using TMB according to manufacturer's instructions.

[2] = molecular target: long form of human leptin receptor (hLEPR) on BAF/3 or H-49 (HEK-293) cells (human), P48357; assay: cell-based or functional assay
Sequence of long form of human leptin receptor (hLEPR) on BAF/3 or H-49 (HEK-293) cells (human), P48357 (P48357 22-1165): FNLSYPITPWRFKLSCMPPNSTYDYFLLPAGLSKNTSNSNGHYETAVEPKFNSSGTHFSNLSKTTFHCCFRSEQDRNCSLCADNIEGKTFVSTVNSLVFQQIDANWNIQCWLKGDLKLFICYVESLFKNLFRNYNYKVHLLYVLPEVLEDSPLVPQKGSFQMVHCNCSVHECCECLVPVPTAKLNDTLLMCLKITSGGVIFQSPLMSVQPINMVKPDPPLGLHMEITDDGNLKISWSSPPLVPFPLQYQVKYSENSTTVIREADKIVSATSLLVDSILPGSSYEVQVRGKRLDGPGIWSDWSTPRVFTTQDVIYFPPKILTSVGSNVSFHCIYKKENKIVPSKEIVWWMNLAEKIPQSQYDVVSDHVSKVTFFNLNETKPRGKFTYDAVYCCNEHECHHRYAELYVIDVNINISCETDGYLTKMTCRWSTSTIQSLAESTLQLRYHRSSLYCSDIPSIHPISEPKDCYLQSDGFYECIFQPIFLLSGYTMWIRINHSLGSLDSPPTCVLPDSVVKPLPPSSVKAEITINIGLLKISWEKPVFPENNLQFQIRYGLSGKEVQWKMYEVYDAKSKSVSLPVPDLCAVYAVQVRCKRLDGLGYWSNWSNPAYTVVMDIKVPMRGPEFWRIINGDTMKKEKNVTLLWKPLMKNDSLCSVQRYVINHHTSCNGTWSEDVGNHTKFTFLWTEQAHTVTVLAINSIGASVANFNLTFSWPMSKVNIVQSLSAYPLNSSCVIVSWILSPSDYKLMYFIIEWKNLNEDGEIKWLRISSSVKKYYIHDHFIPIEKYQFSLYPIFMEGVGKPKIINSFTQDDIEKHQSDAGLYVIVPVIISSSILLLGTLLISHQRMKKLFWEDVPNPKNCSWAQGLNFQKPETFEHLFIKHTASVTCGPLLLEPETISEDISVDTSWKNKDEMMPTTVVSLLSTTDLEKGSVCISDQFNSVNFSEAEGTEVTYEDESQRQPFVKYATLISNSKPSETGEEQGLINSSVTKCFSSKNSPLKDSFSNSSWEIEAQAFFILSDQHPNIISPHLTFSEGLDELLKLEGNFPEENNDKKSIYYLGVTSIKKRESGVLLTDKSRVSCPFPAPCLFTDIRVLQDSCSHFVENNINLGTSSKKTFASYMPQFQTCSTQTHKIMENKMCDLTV

B1: mouse leptin antagonist H12 (S97Y + L39A/D40A/F41A) (ligand)
chain: AVPIQKVQDDTKTLIKTIVTRINDISHTQSVSAKQRVTGAAAIPGLHPILSLSKMDQTLAVYQQVLTSLPSQNVLQIANDLENLRDLLHLLAFSKSCYLPQTSGLQKPESLDGVLEASLYSTEVVALSRLQGSLQDILQQLDVSPEC
notes: mature; also called H12 (antagonist)
Question: With B1 as the binder, how does the “fold increase in affinity as compared to the WT mouse leptin antagonist” value [1] read?
Answer: 1.4 fold

B2: mouse leptin antagonist H19 (D23G, T37A, G44D + L39A/D40A/F41A), P41160 22-167 (ligand)
chain: B1 chain with D24G, T38A, G45D, Y98S
Question: For B2, which BAF/3 bioassay: fold increase in bioactivity as compared to the WT mouse leptin antagonist [2] is on record?
Answer: 3.5 fold

Question: What about the Luciferase bioassay: fold increase in bioactivity as compared to the WT mouse leptin antagonist [2] of the same binder?
Answer: 2.9 fold

B3: mouse leptin antagonist H16 (D23G, G112S + L39A/D40A/F41A), P41160 22-167 (ligand)
chain: B1 chain with D24G, Y98S, G113S
Question: Which BAF/3 bioassay: fold increase in bioactivity as compared to the WT mouse leptin antagonist [2] does the source give for B3 here?
Answer: 3.3 fold

Question: And the Luciferase bioassay: fold increase in bioactivity as compared to the WT mouse leptin antagonist [2]?
Answer: 3.3 fold

B4: recombinant mouse leptin mutein H22 (T12I), agonist, P41160 22-167 (ligand)
chain: B1 chain with T13I, A40L, A41D, A42F, Y98S
Question: Which BAF/3 bioassay: fold increase in bioactivity as compared to the WT mouse leptin [2] does the source give for B4 here?
Answer: 0.8 fold

Question: And the Luciferase bioassay: fold increase in bioactivity as compared to the WT mouse leptin [2]?
Answer: 0.7 fold

B5: mouse leptin antagonist H15 (D23G, L68M, S97F, S132Y + L39A/D40A/F41A), P41160 22-167 (ligand)
chain: B1 chain with D24G, L69M, Y98F, S133Y
Question: Which results are given for B5?
Answer: BAF/3 bioassay: fold increase in bioactivity as compared to the WT mouse leptin antagonist [2]: 4.8 fold; Luciferase bioassay: fold increase in bioactivity as compared to the WT mouse leptin antagonist [2]: 4.2 fold

B6: mouse leptin antagonist H12 (S97Y + L39A/D40A/F41A), P41160 22-167 (ligand)
chain: B1 chain
Question: B6 was tested. Which BAF/3 bioassay: fold increase in bioactivity as compared to the WT mouse leptin antagonist [2] did it give?
Answer: 0.8 fold

Question: And the Luciferase bioassay: fold increase in bioactivity as compared to the WT mouse leptin antagonist [2]?
Answer: 0.1 fold

B7: recombinant mouse leptin mutein H15 (D23G, L68M, S97F, S132Y), agonist, P41160 22-167 (ligand)
chain: B1 chain with D24G, A40L, A41D, A42F, L69M, Y98F, S133Y
Question: With B7 as the binder, how does the BAF/3 bioassay: fold increase in bioactivity as compared to the WT mouse leptin [2] read?
Answer: 0.5 fold

Question: What about the Luciferase bioassay: fold increase in bioactivity as compared to the WT mouse leptin [2] of the same binder?
Answer: 0.8 fold

B8: mouse leptin antagonist H22 (T12I + L39A/D40A/F41A), P41160 22-167 (ligand)
chain: B1 chain with T13I, Y98S
Question: B8 was tested. Which BAF/3 bioassay: fold increase in bioactivity as compared to the WT mouse leptin antagonist [2] did it give?
Answer: 2.4 fold

Question: And the Luciferase bioassay: fold increase in bioactivity as compared to the WT mouse leptin antagonist [2]?
Answer: 3.3 fold

B9: pegylated mouse leptin antagonist (PEG-MLA), P41160 22-167 (ligand)
chain: B1 chain with Y98S
modifications: here or on the partner: pegylated (method previously described for MLA; 20 kDa PEG, site not restated here)
Question: How did the biological activity: fold reduction by pegylation of MLA [2] turn out when B9 was run?
Answer: 7 fold

B10: recombinant mouse leptin mutein H12 (S97Y), agonist, P41160 22-167 (ligand)
chain: B1 chain with A40L, A41D, A42F
Question: How did the BAF/3 bioassay: fold increase in bioactivity as compared to the WT mouse leptin [2] turn out when B10 was run?
Answer: 0.9 fold

Question: What about the Luciferase bioassay: fold increase in bioactivity as compared to the WT mouse leptin [2] of the same binder?
Answer: 0.7 fold

B11: mouse leptin antagonist H19 (D23G, T37A, G44D + L39A/D40A/F41A) (ligand)
chain: B1 chain with D24G, T38A, G45D, Y98S
notes: mature; also called H19 (antagonist)
Question: For B11, which “fold increase in affinity as compared to the WT mouse leptin antagonist” value [1] is on record?
Answer: 6.1 fold

B12: recombinant mouse leptin mutein H12 (S97Y), agonist (ligand)
chain: B1 chain with A40L, A41D, A42F
notes: mature
Question: Which “fold increase in affinity as compared to the WT mouse leptin” value [1] does the source give for B12 here?
Answer: 1.5 fold

B13: recombinant mouse leptin mutein H22 (T12I), agonist (ligand)
chain: B1 chain with T13I, A40L, A41D, A42F, Y98S
notes: mature
Question: For B13, which “fold increase in affinity as compared to the WT mouse leptin” value [1] is on record?
Answer: 11.7 fold

B14: recombinant mouse leptin mutein H16 (D23G, G112S), agonist (ligand)
chain: B1 chain with D24G, A40L, A41D, A42F, Y98S, G113S
notes: mature
Question: How did the BAF/3 bioassay: fold increase in bioactivity as compared to the WT mouse leptin [2] turn out when B14 was run?
Answer: 0.8 fold

Question: What about the Luciferase bioassay: fold increase in bioactivity as compared to the WT mouse leptin [2] of the same binder?
Answer: 0.9 fold

Question: What about the “fold increase in affinity as compared to the WT mouse leptin” value [1] of the same binder?
Answer: 20.3 fold

B15: mouse leptin antagonist H22 (T12I + L39A/D40A/F41A) (ligand)
chain: B1 chain with T13I, Y98S
notes: mature; also called H22 (antagonist)
Question: B15 was tested. Which “fold increase in affinity as compared to the WT mouse leptin antagonist” value [1] did it give?
Answer: 11.2 fold

B16: mouse leptin antagonist H15 (D23G, L68M, S97F, S132Y + L39A/D40A/F41A) (ligand)
chain: B1 chain with D24G, L69M, Y98F, S133Y
notes: mature; also called H15 (antagonist)
Question: How did the “fold increase in affinity as compared to the WT mouse leptin antagonist” value [1] turn out when B16 was run?
Answer: 12.4 fold
